Experiment: Cell lysate reaction of pMT enzymes with psi-ionone, irones quantified by HS-SPME-GCMS
Type: biochemical
Details: for cis-α-irone content (percentage of cis-α-irone in the irone mixture): cell extracts with psi-ionone; for fold change in cis-α-irone produced: AUC vs non-mutated (=1); for irone production / methyltransferase activity towards psi-ionone (in words): cell lysate reaction, vs parent or control
Experimental: Using the structure of pMT1 in complex with the cofactor S-adenosyl-L-homocysteine (SAH) and the substrate teleocidin A1 (PDB id: 5GM2) as a template, pMT1 bound to each of the four isomers of α-irone was modelled with the aim of identifying amino acid residues that could be critical to increase cis-α-irone or decrease trans-α-irone production (FIGS. 2d and 2e). […] Site-directed mutagenesis of the 24 residues was carried out with degenerative primers. Subsequently, the mutants of each site were pooled together, and examined if the activity or product-selectivity of the pooled mutants were increased (FIG. 8). This reduced the number of screening reactions to 24, which is manageable when a high-throughput enzymatic assay is not available. […] One residue was chosen and subjected to site-saturation mutagenesis by using degenerative primers containing NNN or NNK. The plasmid library was then transformed into E. coli BL21 (DE3) cells and plated on agar plate containing autoinduction media^19. […] Subsequently, the colonies were collected and resuspended in phosphate saline buffer. Equal number of cells was taken for lysis and cell lysate reactions were carried out in capped SPME-GC vials at 28° C. for 2 days. HS-SPME-GCMS analysis was used to quantify the amount of irones produced by each pooled-colony reaction. […] 24 residues including the control Gly85 (G85m) were subjected to site-saturation mutagenesis, using pMT1 as the template. […] The amount of cis-α-irone produced was estimated based on the area under the gas chromatogram curve (AUC). The fold change is calculated by comparing the AUC of cis-α-irone produced by the mutant enzyme to that of non-mutated.
For each pMT mutant, it was transformed into BL21 and grown in autoinduction media with 5 mM lactose at 20° C. for 36 hrs. Then, cells were pelleted and concentrated 10 times by adding 1 ml of PBS. The OD600 was measured and 40*600 OD*ul cells were transferred into a new 1.5 ml tube. The cells were spun down and resuspended in 600 μl of lysis buffer (1×DNase buffer, 150 mM NaCl, 0.5% glycerol, 1 mg/ml lysozyme and 20U of DNasel). The cells were incubated for 2 hrs at 20° C. with shaking at 300 rpm. Following that, 2 cycles of freeze-thaw was done to completely lyse the cells. At the end of the 2nd thawing, the cell lysate was used to setup a 1 ml reaction in 2 ml GC vials. The reaction consisted of 50 mM Tris (pH7), 10 mM MgCl2, 60 mM NaCl, 0.2 mM SAM and 10 mg/L of psi-ionone and caryophyllene each. To this, 500 μl of cell lysate was added while the remaining 100 μl was used for SDS-PAGE to analyze the total and soluble protein expression. The reaction was incubated for 2 days at 28° C., 300 rpm prior to extraction of cis-α-irone with 500 μl hexane. From this, 20 μl of organic layer was taken into 180 μl hexane for GCMS analysis.
For the mutant pMT activity screening, the reactants and products were analyzed by head space solid phase microextraction (HS-SPME) coupled with an Agilent 5977B gas chromatography (GC) system equipped with Agilent DB-5 ms column (30 m×250 μm×0.25 μm) and mass spectrometry (MS) with high efficiency source. The reaction mixtures were carried out in SPME vials which were incubated at 60° C. for 20 mins to allow the release of volatile compounds. The absorbent fiber (50/30 μm divinylbenzol/carboxen/polydimethyl-SPME fiber, SUPELCO) was then exposed to the headspace of the vial for 20 mins. The extracted analytes were desorbed at the GC inlet at 250° C. for 1 min and injected into GC with a split ratio of 200:1. The GC oven temperature increased from 50° C. to 140° C. at a rate of 10° C./min and held at 140° C. for 10 min. Subsequently, the temperature was increased to 320° C. at a rate of 60° C./min and held at 320° C. for 2 mins.

B1: pMT2: pMT1 with Y200F (protein)
chain: MPQEARTPQQQVTADEVGDWYDKFGEVYHLTLGESVHCGLWFPPDAPVPQDMELVTMSSQAQDRYTDYLIETLDPKAGQHLLDIGCGTGRTALKAARQRGIAVTGVAVSKEQIAAANRLAAGHGLTERLTFEVADAMRLPYEDESFDCAWAIESLCHMDRAKALGEAWRVLKPGGDLLVLESVVTEELTEPETALFETLFAANVPPRLGEFFDIVSGAGFHTLSLKDLSANLAMTMNVFALGVYSRRAEFTERFGAEFVDGLLAGLGSAQETLIRKTRFFMATLRKPAV
modifications: Modified from pMT1
notes: pMT1 with Y200F
cis-α-irone content (percentage of cis-α-irone in the irone mixture): ~68% | fold change in cis-α-irone produced (pMT1_Y200 mutants): 12.2 | fold change in cis-α-irone produced (pMT2_C156 mutants): 1.0 | fold change in cis-α-irone produced (pMT2_F196 mutants): 1.0 | fold change in cis-α-irone produced (pMT2_L180 mutants): 1.0 | fold change in cis-α-irone produced (pMT2_L232 mutants): 1.0 | fold change in cis-α-irone produced (pMT2_M236 mutants): 1.0 | fold change in cis-α-irone produced (pMT2_S182 mutants): 1.0 | fold change in cis-α-irone produced (pMT2_T277 mutants): 1.0 | fold change in cis-α-irone produced (pMT2_V36 mutants): 1.0 | improvement of total turnover number (TTN) (vs pMT1, TTN = cis-α-irone produced / soluble pMT enzyme): > 12 fold

B2: pMT5: pMT1 with Y200F S182E L273V L180A (protein)
chain: MPQEARTPQQQVTADEVGDWYDKFGEVYHLTLGESVHCGLWFPPDAPVPQDMELVTMSSQAQDRYTDYLIETLDPKAGQHLLDIGCGTGRTALKAARQRGIAVTGVAVSKEQIAAANRLAAGHGLTERLTFEVADAMRLPYEDESFDCAWAIESLCHMDRAKALGEAWRVLKPGGDLLVAEEVVTEELTEPETALFETLFAANVPPRLGEFFDIVSGAGFHTLSLKDLSANLAMTMNVFALGVYSRRAEFTERFGAEFVDGLLAGLGSAQETVIRKTRFFMATLRKPAV
modifications: Modified from pMT1
notes: pMT1 with Y200F S182E L273V L180A
cis-α-irone content (percentage of cis-α-irone in the irone mixture): ~90% | fold change in cis-α-irone produced (pMT4_L180 mutants): 1.8 | fold change in cis-α-irone produced (pMT5_A102 mutants): 1.0 | fold change in cis-α-irone produced (pMT5_A202 mutants): 1.0 | fold change in cis-α-irone produced (pMT5_T104 mutants): 1

B3: pMT8: pMT1 with Y200F S182E L273V L180A A202L C156P (protein)
chain: MPQEARTPQQQVTADEVGDWYDKFGEVYHLTLGESVHCGLWFPPDAPVPQDMELVTMSSQAQDRYTDYLIETLDPKAGQHLLDIGCGTGRTALKAARQRGIAVTGVAVSKEQIAAANRLAAGHGLTERLTFEVADAMRLPYEDESFDCAWAIESLPHMDRAKALGEAWRVLKPGGDLLVAEEVVTEELTEPETALFETLFALNVPPRLGEFFDIVSGAGFHTLSLKDLSANLAMTMNVFALGVYSRRAEFTERFGAEFVDGLLAGLGSAQETVIRKTRFFMATLRKPAV
modifications: Modified from pMT1
notes: pMT1 with Y200F S182E L273V L180A A202L C156P
irone production / methyltransferase activity towards psi-ionone (in words): further improved the TTN of the enzyme | fold change in cis-α-irone produced (pMT6_C156 mutants): 1.1

B4: pMT9: pMT1 with Y200F S182E L273V L180A A202L Y65F C156A (protein)
chain: MPQEARTPQQQVTADEVGDWYDKFGEVYHLTLGESVHCGLWFPPDAPVPQDMELVTMSSQAQDRYTDYLIETLDPKAGQHLLDIGCGTGRTALKAARQRGIAVTGVAVSKEQIAAANRLAAGHGLTERLTFEVADAMRLPYEDESFDCAWAIESLAHMDRAKALGEAWRVLKPGGDLLVAEEVVTEELTEPETALFETLFALNVPPRLGEFFDIVSGAGFHTLSLKDLSANLAMTMNVFALGVYSRRAEFTERFGAEFVDGLLAGLGSAQETVIRKTRFFMATLRKPAV
modifications: Modified from pMT1
notes: pMT1 with Y200F S182E L273V L180A A202L Y65F C156A
irone production / methyltransferase activity towards psi-ionone (in words): increased both α- and β-irone production

B5: pMT1_M236F: pMT1 with M236F (protein)
chain: MPQEARTPQQQVTADEVGDWYDKFGEVYHLTLGESVHCGLWFPPDAPVPQDMELVTMSSQAQDRYTDYLIETLDPKAGQHLLDIGCGTGRTALKAARQRGIAVTGVAVSKEQIAAANRLAAGHGLTERLTFEVADAMRLPYEDESFDCAWAIESLCHMDRAKALGEAWRVLKPGGDLLVLESVVTEELTEPETALFETLYAANVPPRLGEFFDIVSGAGFHTLSLKDLSANLAMTFNVFALGVYSRRAEFTERFGAEFVDGLLAGLGSAQETLIRKTRFFMATLRKPAV
fold change in cis-α-irone produced (pMT1_M236 mutants): 0.0

B6: pMT1_R160F: pMT1 with R160F (protein)
chain: MPQEARTPQQQVTADEVGDWYDKFGEVYHLTLGESVHCGLWFPPDAPVPQDMELVTMSSQAQDRYTDYLIETLDPKAGQHLLDIGCGTGRTALKAARQRGIAVTGVAVSKEQIAAANRLAAGHGLTERLTFEVADAMRLPYEDESFDCAWAIESLCHMDFAKALGEAWRVLKPGGDLLVLESVVTEELTEPETALFETLYAANVPPRLGEFFDIVSGAGFHTLSLKDLSANLAMTMNVFALGVYSRRAEFTERFGAEFVDGLLAGLGSAQETLIRKTRFFMATLRKPAV
fold change in cis-α-irone produced (pMT1_R160 mutants): 0.0

B7: pMT6: pMT1 with Y200F S182E L273V L180A A202L (protein)
chain: MPQEARTPQQQVTADEVGDWYDKFGEVYHLTLGESVHCGLWFPPDAPVPQDMELVTMSSQAQDRYTDYLIETLDPKAGQHLLDIGCGTGRTALKAARQRGIAVTGVAVSKEQIAAANRLAAGHGLTERLTFEVADAMRLPYEDESFDCAWAIESLCHMDRAKALGEAWRVLKPGGDLLVAEEVVTEELTEPETALFETLFALNVPPRLGEFFDIVSGAGFHTLSLKDLSANLAMTMNVFALGVYSRRAEFTERFGAEFVDGLLAGLGSAQETVIRKTRFFMATLRKPAV
modifications: Modified from pMT1
notes: pMT1 with Y200F S182E L273V L180A A202L
irone production / methyltransferase activity towards psi-ionone (in words): significantly increased the cis-α-irone concentration | β-irone share of the irone mixture (cell lysate with psi-ionone): ~30% | fold change in cis-α-irone produced (pMT5_A202 mutants): 4.3 | fold change in cis-α-irone produced (pMT6_C156 mutants): 1.0 | fold change in cis-α-irone produced (pMT6_Y65 mutants): 1.0

B8: pMT1_Y200L: pMT1 with Y200L (protein)
chain: MPQEARTPQQQVTADEVGDWYDKFGEVYHLTLGESVHCGLWFPPDAPVPQDMELVTMSSQAQDRYTDYLIETLDPKAGQHLLDIGCGTGRTALKAARQRGIAVTGVAVSKEQIAAANRLAAGHGLTERLTFEVADAMRLPYEDESFDCAWAIESLCHMDRAKALGEAWRVLKPGGDLLVLESVVTEELTEPETALFETLLAANVPPRLGEFFDIVSGAGFHTLSLKDLSANLAMTMNVFALGVYSRRAEFTERFGAEFVDGLLAGLGSAQETLIRKTRFFMATLRKPAV
irone production / methyltransferase activity towards psi-ionone (in words): improved trans-α-irone production | fold change in cis-α-irone produced (pMT1_Y200 mutants): 0.4
